Measured values published in publication doi:10.1101/2024.02.16.579620 (bioRxiv, 2024).
“And” between values parts separate entries of the source, which are not always exact repeats. Equal values may be shown once.

How the values were obtained:
[1] = biological target: the molecule itself; assay: MST
[2] = biological target: the molecule itself; assay: SEC
[3] = biological target: ΔEspP peptide; assay: dynamic light scattering

Row | Binder | Kd [1] | stoichiometry N [2] | binding result [3]
1 | FITC-labelled human Ire1α luminal domain (aa 24-449) (domain or fragment, FITC label (site not stated)) STVTLPETLLFVSTLDGSLHAVSKRTGSIKWTLKEDPVLQVPTHVEEPAFLPDPNDGSLYTLGSKNNEGLTKLPFTIPELVQASPCRSSDGILYMGKKQDIWYVIDLLTGEKQQTLSSAFADSLCPSTSLLYLGRTEYTITMYDTKTRELRWNATYFDYAASLPEDDVDYKMSHFVSNGDGLVVTVDSESGDVLWIQNYASPVVAFYVWQREGLRKVMHINVAVETLRYLTFMSGEVGRITKWKYPFPKETEAKSKLTPTLYVGKYSTSLYASPSMVHEGVAVVPRGSTLPLLEGPQTDGVTIGDKGECVITPSTDVKFDPGLKSKNKLNYLRNYWLLIGHHETPLSASTKMLERFPNNLPKHRENVIPADSEKKSFEEVINLVDQTSENAPTTVSRDVEEKPAHAPARPEAPVDSMLKDMATIIL | 500 nM |  | 
2 | human Ire1α luminal domain (aa 24-449), wild type (domain or fragment) STVTLPETLLFVSTLDGSLHAVSKRTGSIKWTLKEDPVLQVPTHVEEPAFLPDPNDGSLYTLGSKNNEGLTKLPFTIPELVQASPCRSSDGILYMGKKQDIWYVIDLLTGEKQQTLSSAFADSLCPSTSLLYLGRTEYTITMYDTKTRELRWNATYFDYAASLPEDDVDYKMSHFVSNGDGLVVTVDSESGDVLWIQNYASPVVAFYVWQREGLRKVMHINVAVETLRYLTFMSGEVGRITKWKYPFPKETEAKSKLTPTLYVGKYSTSLYASPSMVHEGVAVVPRGSTLPLLEGPQTDGVTIGDKGECVITPSTDVKFDPGLKSKNKLNYLRNYWLLIGHHETPLSASTKMLERFPNNLPKHRENVIPADSEKKSFEEVINLVDQTSENAPTTVSRDVEEKPAHAPARPEAPVDSMLKDMATIIL |  | 2 and 4 | binds
